Test results reported in patent publication US20140087995A1 (published 2014).
Each block holds one binder with its values, some of them ahead of it. Numbered stars: 1 amine (or outer) side, 2 acyl side, 3 side chain; on linkers, the order of the positions; unused ones are H or OH. Bridge positions count the residues as written; N and C are the ends. Side chains are listed from the residue outwards. Ends that are not written are not given here. * marks the point of attachment. C20 diacid = O=C(O)CCCCCCCCCCCCCCCCCCC(=O)*; γGlu = O=C(O)[C@H](CCC(=O)[*:2])N[*:1]; AEEA = NCCOCCOCC(=O)O

Target: T1, human amylin receptor (human, UniProt P30988 25-474; O60896 24-148, limits assumed)
T1 construct: whole, on cells; Calcitonin receptor plus RAMP-3 gives the amylin 3(a) receptor; membranes of Amylin 3(a)/CRE-luc cells were used; also called hAmylin-R; hAmylinR
T1 sequence (looked up) 1: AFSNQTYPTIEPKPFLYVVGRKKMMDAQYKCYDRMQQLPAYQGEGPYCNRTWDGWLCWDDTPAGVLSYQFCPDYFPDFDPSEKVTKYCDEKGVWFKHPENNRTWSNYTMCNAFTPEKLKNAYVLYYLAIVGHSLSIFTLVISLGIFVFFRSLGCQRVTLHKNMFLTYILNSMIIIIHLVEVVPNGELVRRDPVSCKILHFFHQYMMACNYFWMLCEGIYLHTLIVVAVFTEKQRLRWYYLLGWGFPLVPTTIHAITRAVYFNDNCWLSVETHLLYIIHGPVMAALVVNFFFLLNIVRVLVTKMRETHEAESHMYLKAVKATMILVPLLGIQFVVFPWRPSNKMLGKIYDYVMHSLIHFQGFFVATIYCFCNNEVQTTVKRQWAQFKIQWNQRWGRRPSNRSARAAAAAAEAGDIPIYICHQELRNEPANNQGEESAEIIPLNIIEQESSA
T1 sequence (looked up) 2: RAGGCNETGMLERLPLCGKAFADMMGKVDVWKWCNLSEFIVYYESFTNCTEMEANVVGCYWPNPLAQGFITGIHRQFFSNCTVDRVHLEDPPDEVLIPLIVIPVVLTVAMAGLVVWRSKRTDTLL
Assay: SPA competition binding, displacement of 125I-rat amylin from membranes with human amylin 3(a) receptor (Assay V)
Procedure, shortened: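 Membranes from BHK Amylin 3(a)/CRE-luc cells (35 ng/μL final) were mixed with SPA beads and test compounds in 50 mM Hepes pH 7.4 with 1 mM CaCl2, 5 mM MgCl₂, 0.1% OA and 0.02% Tween20. Incubation ran 120 min at 25° C with shaking; IC₅₀ came from one-site competition fitting.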

B1: N^ε1-[2-[2-[2-[[2-[2-[2-[[(4S)-4-carboxy-4-(19-carboxynonadecanoylamino)butanoyl]amino]ethoxy]ethoxy]acetyl]amino]ethoxy]ethoxy]acetyl]-[Arg17,Pro21,Pro27,Glu35 … (peptide)
peptide: K([AEEA-AEEA-γGlu-C20 diacid])CNTATCATQRLANFLRHSSPNFGAIPSSTNVGSETY-NH2
modifications: disulfide 2-7; N-terminus assumed
SMILES: CC[C@H](C)[C@H](NC(=O)[C@H](C)NC(=O)CNC(=O)[C@H](Cc1ccccc1)NC(=O)[C@H](CC(N)=O)NC(=O)[C@@H]1CCCN1C(=O)[C@H](CO)NC(=O)[C@H](CO)NC(=O)[C@H](Cc1c[nH]cn1)NC(=O)[C@H](CCCNC(=N)N)NC(=O)[C@H](CC(C)C)NC(=O)[C@H](Cc1ccccc1)NC(=O)[C@H](CC(N)=O)NC(=O)[C@H](C)NC(=O)[C@H](CC(C)C)NC(=O)[C@H](CCCNC(=N)N)NC(=O)[C@H](CCC(N)=O)NC(=O)[C@@H](NC(=O)[C@H](C)NC(=O)[C@@H]1CSSC[C@H](NC(=O)[C@@H](N)CCCCNC(=O)COCCOCCNC(=O)COCCOCCNC(=O)CC[C@H](NC(=O)CCCCCCCCCCCCCCCCCCC(=O)O)C(=O)O)C(=O)N[C@@H](CC(N)=O)C(=O)N[C@@H]([C@@H](C)O)C(=O)N[C@@H](C)C(=O)N[C@@H]([C@@H](C)O)C(=O)N1)[C@@H](C)O)C(=O)N1CCC[C@H]1C(=O)N[C@@H](CO)C(=O)N[C@@H](CO)C(=O)N[C@H](C(=O)N[C@@H](CC(N)=O)C(=O)N[C@H](C(=O)NCC(=O)N[C@@H](CO)C(=O)N[C@@H](CCC(=O)O)C(=O)N[C@H](C(=O)N[C@@H](Cc1ccc(O)cc1)C(N)=O)[C@@H](C)O)C(C)C)[C@@H](C)O
notes: also called 17R, 21P, 27P, 35E
IC50: 0.768 nM

B2: N^ε1-[2-[2-[2-[[(4S)-4-carboxy-4-(19-carboxynonadecanoylamino)butanoyl]amino]ethoxy]ethoxy]acetyl]-[Arg14,Arg17,Pro21,Pro27,Pro31]-h-amylin (peptide)
peptide: K([AEEA-γGlu-C20 diacid])CNTATCATQRLARFLRHSSPNFGAIPSSTPVGSNTY-NH2
modifications: disulfide 2-7; N-terminus assumed
SMILES: CC[C@H](C)[C@H](NC(=O)[C@H](C)NC(=O)CNC(=O)[C@H](Cc1ccccc1)NC(=O)[C@H](CC(N)=O)NC(=O)[C@@H]1CCCN1C(=O)[C@H](CO)NC(=O)[C@H](CO)NC(=O)[C@H](Cc1c[nH]cn1)NC(=O)[C@H](CCCNC(=N)N)NC(=O)[C@H](CC(C)C)NC(=O)[C@H](Cc1ccccc1)NC(=O)[C@H](CCCNC(=N)N)NC(=O)[C@H](C)NC(=O)[C@H](CC(C)C)NC(=O)[C@H](CCCNC(=N)N)NC(=O)[C@H](CCC(N)=O)NC(=O)[C@@H](NC(=O)[C@H](C)NC(=O)[C@@H]1CSSC[C@H](NC(=O)[C@@H](N)CCCCNC(=O)COCCOCCNC(=O)CC[C@H](NC(=O)CCCCCCCCCCCCCCCCCCC(=O)O)C(=O)O)C(=O)N[C@@H](CC(N)=O)C(=O)N[C@@H]([C@@H](C)O)C(=O)N[C@@H](C)C(=O)N[C@@H]([C@@H](C)O)C(=O)N1)[C@@H](C)O)C(=O)N1CCC[C@H]1C(=O)N[C@@H](CO)C(=O)N[C@@H](CO)C(=O)N[C@H](C(=O)N1CCC[C@H]1C(=O)N[C@H](C(=O)NCC(=O)N[C@@H](CO)C(=O)N[C@@H](CC(N)=O)C(=O)N[C@H](C(=O)N[C@@H](Cc1ccc(O)cc1)C(N)=O)[C@@H](C)O)C(C)C)[C@@H](C)O
notes: also called 14R, 17R, 21P, 27P, 31P
IC50: 0.444 nM

B6: N^ε1-[2-[2-[2-[[(4S)-4-carboxy-4-(19-carboxynonadecanoylamino)butanoyl]amino]ethoxy]ethoxy]acetyl]-[Ala14,Arg17,Pro21,Pro27,Pro31]-h-amylin (peptide)
peptide: K([AEEA-γGlu-C20 diacid])CNTATCATQRLAAFLRHSSPNFGAIPSSTPVGSNTY-NH2
modifications: disulfide 2-7; N-terminus assumed
SMILES: CC[C@H](C)[C@H](NC(=O)[C@H](C)NC(=O)CNC(=O)[C@H](Cc1ccccc1)NC(=O)[C@H](CC(N)=O)NC(=O)[C@@H]1CCCN1C(=O)[C@H](CO)NC(=O)[C@H](CO)NC(=O)[C@H](Cc1c[nH]cn1)NC(=O)[C@H](CCCNC(=N)N)NC(=O)[C@H](CC(C)C)NC(=O)[C@H](Cc1ccccc1)NC(=O)[C@H](C)NC(=O)[C@H](C)NC(=O)[C@H](CC(C)C)NC(=O)[C@H](CCCNC(=N)N)NC(=O)[C@H](CCC(N)=O)NC(=O)[C@@H](NC(=O)[C@H](C)NC(=O)[C@@H]1CSSC[C@H](NC(=O)[C@@H](N)CCCCNC(=O)COCCOCCNC(=O)CC[C@H](NC(=O)CCCCCCCCCCCCCCCCCCC(=O)O)C(=O)O)C(=O)N[C@@H](CC(N)=O)C(=O)N[C@@H]([C@@H](C)O)C(=O)N[C@@H](C)C(=O)N[C@@H]([C@@H](C)O)C(=O)N1)[C@@H](C)O)C(=O)N1CCC[C@H]1C(=O)N[C@@H](CO)C(=O)N[C@@H](CO)C(=O)N[C@H](C(=O)N1CCC[C@H]1C(=O)N[C@H](C(=O)NCC(=O)N[C@@H](CO)C(=O)N[C@@H](CC(N)=O)C(=O)N[C@H](C(=O)N[C@@H](Cc1ccc(O)cc1)C(N)=O)[C@@H](C)O)C(C)C)[C@@H](C)O
notes: also called 14A, 17R, 21P, 27P, 31P
IC50: 0.172 nM

More lines, now with the values ahead:

IC50: 0.568 nM
B3: N^ε1-[2-[2-[2-[[2-[2-[2-[[(4S)-4-carboxy-4-(19-carboxynonadecanoylamino)butanoyl]amino]ethoxy]ethoxy]acetyl]amino]ethoxy]ethoxy]acetyl]-[Arg17,Pro21,Pro27,His34 … (peptide)
peptide: K([AEEA-AEEA-γGlu-C20 diacid])CNTATCATQRLANFLRHSSPNFGAIPSSTNVGHNTY-NH2
modifications: disulfide 2-7; N-terminus assumed
SMILES: CC[C@H](C)[C@H](NC(=O)[C@H](C)NC(=O)CNC(=O)[C@H](Cc1ccccc1)NC(=O)[C@H](CC(N)=O)NC(=O)[C@@H]1CCCN1C(=O)[C@H](CO)NC(=O)[C@H](CO)NC(=O)[C@H](Cc1c[nH]cn1)NC(=O)[C@H](CCCNC(=N)N)NC(=O)[C@H](CC(C)C)NC(=O)[C@H](Cc1ccccc1)NC(=O)[C@H](CC(N)=O)NC(=O)[C@H](C)NC(=O)[C@H](CC(C)C)NC(=O)[C@H](CCCNC(=N)N)NC(=O)[C@H](CCC(N)=O)NC(=O)[C@@H](NC(=O)[C@H](C)NC(=O)[C@@H]1CSSC[C@H](NC(=O)[C@@H](N)CCCCNC(=O)COCCOCCNC(=O)COCCOCCNC(=O)CC[C@H](NC(=O)CCCCCCCCCCCCCCCCCCC(=O)O)C(=O)O)C(=O)N[C@@H](CC(N)=O)C(=O)N[C@@H]([C@@H](C)O)C(=O)N[C@@H](C)C(=O)N[C@@H]([C@@H](C)O)C(=O)N1)[C@@H](C)O)C(=O)N1CCC[C@H]1C(=O)N[C@@H](CO)C(=O)N[C@@H](CO)C(=O)N[C@H](C(=O)N[C@@H](CC(N)=O)C(=O)N[C@H](C(=O)NCC(=O)N[C@@H](Cc1c[nH]cn1)C(=O)N[C@@H](CC(N)=O)C(=O)N[C@H](C(=O)N[C@@H](Cc1ccc(O)cc1)C(N)=O)[C@@H](C)O)C(C)C)[C@@H](C)O
notes: also called 17R, 21P, 27P, 34H

IC50: 0.166 nM
B4: N^ε1-[2-[2-[2-[[2-[2-[2-[[(4S)-4-carboxy-4-(19-carboxynonadecanoylamino)butanoyl]amino]ethoxy]ethoxy]acetyl]amino]ethoxy]ethoxy]acetyl]-[Arg17,Pro21,Pro27,Pro31 … (peptide)
peptide: K([AEEA-AEEA-γGlu-C20 diacid])CNTATCATQRLANFLRHSSPNFGAIPSSTPVGSNTY-NH2
modifications: disulfide 2-7; N-terminus assumed
SMILES: CC[C@H](C)[C@H](NC(=O)[C@H](C)NC(=O)CNC(=O)[C@H](Cc1ccccc1)NC(=O)[C@H](CC(N)=O)NC(=O)[C@@H]1CCCN1C(=O)[C@H](CO)NC(=O)[C@H](CO)NC(=O)[C@H](Cc1c[nH]cn1)NC(=O)[C@H](CCCNC(=N)N)NC(=O)[C@H](CC(C)C)NC(=O)[C@H](Cc1ccccc1)NC(=O)[C@H](CC(N)=O)NC(=O)[C@H](C)NC(=O)[C@H](CC(C)C)NC(=O)[C@H](CCCNC(=N)N)NC(=O)[C@H](CCC(N)=O)NC(=O)[C@@H](NC(=O)[C@H](C)NC(=O)[C@@H]1CSSC[C@H](NC(=O)[C@@H](N)CCCCNC(=O)COCCOCCNC(=O)COCCOCCNC(=O)CC[C@H](NC(=O)CCCCCCCCCCCCCCCCCCC(=O)O)C(=O)O)C(=O)N[C@@H](CC(N)=O)C(=O)N[C@@H]([C@@H](C)O)C(=O)N[C@@H](C)C(=O)N[C@@H]([C@@H](C)O)C(=O)N1)[C@@H](C)O)C(=O)N1CCC[C@H]1C(=O)N[C@@H](CO)C(=O)N[C@@H](CO)C(=O)N[C@H](C(=O)N1CCC[C@H]1C(=O)N[C@H](C(=O)NCC(=O)N[C@@H](CO)C(=O)N[C@@H](CC(N)=O)C(=O)N[C@H](C(=O)N[C@@H](Cc1ccc(O)cc1)C(N)=O)[C@@H](C)O)C(C)C)[C@@H](C)O
notes: also called 17R, 21P, 27P, 31P

IC50: 0.091 nM
B5: N^ε1-[2-[2-[2-[[2-[2-[2-[[(4S)-4-carboxy-4-(19-carboxynonadecanoylamino)butanoyl]amino]ethoxy]ethoxy]acetyl]amino]ethoxy]ethoxy]acetyl]-[Arg17,Pro21,Pro27,Pro34 … (peptide)
peptide: K([AEEA-AEEA-γGlu-C20 diacid])CNTATCATQRLANFLRHSSPNFGAIPSSTNVGPNTY-NH2
modifications: disulfide 2-7; N-terminus assumed
SMILES: CC[C@H](C)[C@H](NC(=O)[C@H](C)NC(=O)CNC(=O)[C@H](Cc1ccccc1)NC(=O)[C@H](CC(N)=O)NC(=O)[C@@H]1CCCN1C(=O)[C@H](CO)NC(=O)[C@H](CO)NC(=O)[C@H](Cc1c[nH]cn1)NC(=O)[C@H](CCCNC(=N)N)NC(=O)[C@H](CC(C)C)NC(=O)[C@H](Cc1ccccc1)NC(=O)[C@H](CC(N)=O)NC(=O)[C@H](C)NC(=O)[C@H](CC(C)C)NC(=O)[C@H](CCCNC(=N)N)NC(=O)[C@H](CCC(N)=O)NC(=O)[C@@H](NC(=O)[C@H](C)NC(=O)[C@@H]1CSSC[C@H](NC(=O)[C@@H](N)CCCCNC(=O)COCCOCCNC(=O)COCCOCCNC(=O)CC[C@H](NC(=O)CCCCCCCCCCCCCCCCCCC(=O)O)C(=O)O)C(=O)N[C@@H](CC(N)=O)C(=O)N[C@@H]([C@@H](C)O)C(=O)N[C@@H](C)C(=O)N[C@@H]([C@@H](C)O)C(=O)N1)[C@@H](C)O)C(=O)N1CCC[C@H]1C(=O)N[C@@H](CO)C(=O)N[C@@H](CO)C(=O)N[C@H](C(=O)N[C@@H](CC(N)=O)C(=O)N[C@H](C(=O)NCC(=O)N1CCC[C@H]1C(=O)N[C@@H](CC(N)=O)C(=O)N[C@H](C(=O)N[C@@H](Cc1ccc(O)cc1)C(N)=O)[C@@H](C)O)C(C)C)[C@@H](C)O
notes: also called 17R, 21P, 27P, 34P
